Experimental findings from article PMC10619557, “Crystal Structures of 6-Phosphogluconate Dehydrogenase from Corynebacterium glutamicum” (Journal of Microbiology and Biotechnology, 2023) are described below.

Substrate in data set [1]: NC(=O)c1ccc[n+]([C@@H]2O[C@H](COP(=O)(O)OP(=O)(O)OC[C@H]3O[C@@H](n4cnc5c(N)ncnc54)[C@H](OP(=O)(O)O)[C@@H]3O)[C@@H](O)[C@H]2O)c1
In words: purified protein. The class given is biochemical, Corynebacterium glutamicum. As to conditions: NADP 0.01-2 mM, 5 mM 6PG, 40 mM Tris-HCl pH 8.0, 20 °C, varied: cofactor.

Substrate in data set [2]: O=C(O)[C@H](O)[C@@H](O)[C@H](O)[C@H](O)COP(=O)(O)O
Nature of the data set: purified protein. The class given is biochemical, Corynebacterium glutamicum. As to conditions: 6PG 0.1-5 mM, 2 mM NADP, 40 mM Tris-HCl pH 8.0, 20 °C.

B1: Cg6PGD (Corynebacterium glutamicum ATCC 13032) (protein)
chain: MTNGDNLAQIGVVGLAVMGSNLARNFARNGNTVAVYNRSTDKTDKLIADHGSEGNFIPSATVEEFVASLEKPRRAIIMVQAGNATDAVINQLADAMDEGDIIIDGGNALYTDTIRREKEISARGLHFVGAGISGGEEGALNGPSIMPGGPAKSYESLGPLLESIAANVDGTPCVTHIGPDGAGHFVKMVHNGIEYADMQVIGEAYHLLRYAAGMQPAEIAEVFKEWNAGDLDSYLIEITAEVLSQVDAETGKPLIDVIVDAAGQKGTGRWTVKAALDLGIATTGIGEAVFARALSGATSQRAAAQGNLPAGVLTDLEALGVDKAQFVEDVRRALYASKLVAYAQGFDEIKAGSDENNWDVDPRDLATIWRGGCIIRAKFLNRIVEAYDANAELESLLLDPYFKSELGDLIDSWRRVIVTATQLGLPIPVFASSLSYYDSLRAERLPAALIQGQRDFFGAHTYKRIDKDGSFHTEWSGDRSEVEA
notes: full length, 484 residues (Met1-Ala484), C-terminal His6 (pET-30a), E. coli BL21(DE3)-T1R
For B1, in “purified protein [1]”, the Michaelis constant (Km) stood at 162.8 ± 9.5 µM, the kcat was 17.1 ± 0.282 s⁻¹ and the catalytic efficiency (kcat/Km) is 105000 M⁻¹ s⁻¹. In the data set “purified protein [2]”, the Michaelis constant (Km) was 340.8 ± 30 µM, the kcat worked out at 19 ± 0.452 s⁻¹ and the kcat/Km is 55700 M⁻¹ s⁻¹.

In general, Km refers to the concentration of substrate that gives half-maximal velocity. Usually kcat stands for the maximal rate divided by the concentration of active sites. Usually kcat/Km stands for the turnover number divided by the Michaelis constant.
